Test results taken from PMC6189457.

Test: confocal FL-CD19-GFP, WGA Pearson colocalisation, Nalm6 and 697
Details: glycan changed form; control: DMSO

B1: CD19: swainsonine (protein)
parent chain: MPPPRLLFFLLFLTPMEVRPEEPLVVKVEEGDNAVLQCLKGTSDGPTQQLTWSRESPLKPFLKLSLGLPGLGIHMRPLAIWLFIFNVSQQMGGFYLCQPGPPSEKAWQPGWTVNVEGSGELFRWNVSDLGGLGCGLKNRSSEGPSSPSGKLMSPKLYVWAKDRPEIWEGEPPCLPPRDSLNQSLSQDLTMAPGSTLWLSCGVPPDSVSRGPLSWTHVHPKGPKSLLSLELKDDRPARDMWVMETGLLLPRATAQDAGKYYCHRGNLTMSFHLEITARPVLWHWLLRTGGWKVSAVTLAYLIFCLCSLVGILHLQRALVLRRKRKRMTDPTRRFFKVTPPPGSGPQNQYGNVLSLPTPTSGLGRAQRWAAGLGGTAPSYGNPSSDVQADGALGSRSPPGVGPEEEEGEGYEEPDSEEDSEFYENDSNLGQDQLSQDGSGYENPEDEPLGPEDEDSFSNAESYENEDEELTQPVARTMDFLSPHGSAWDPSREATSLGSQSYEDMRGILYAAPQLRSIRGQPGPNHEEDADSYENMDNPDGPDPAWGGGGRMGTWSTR
localisation_or_trafficking: no change
